B1: PYR1*^MANDI, pBD two-hybrid fusion [not stated] / HAB1*, pACT two-hybrid fusion [not stated] (parent)
chain 1: MPSELTPEERSELKNSIAEFHTYQLDPGSCSSLHAQRIHAPPELVWSIVRRFDKPQTHRHFIKSCSVEQNFEMRVGCTRDIIVISGLPANTSTERLDILDDERRVTGASIIGGEHRLTNYKGVTTVHRFEKENRIWTVVLESYVVDMPEGNSEDDTRIVVDDVVKLNLQKLATVAEAMARNSGDGSGSQVT
chain 2: MEEMTPAVAMTLSLAANTMCESSPVEITQLKNVTDAADLLSDSENQSFCNGGTECTMEDVSELEEVGEQDLLKTLSDTRSGSSNVFDEDDVLSVVEDNSAVISEGLLVVDAGSELSLSNTAMEIDNGRVLATAIIVGESSIEQVPTAEVLIAGVNQDTNTSEVVIRLPDENSNHLVKGRSVYELDCIPLWGTVSIQGNASEMEAAFAVSPHFLKLPIKMLMGDHEGMSPSLTHLTGHFFGVYDGHGGHKVADYCRDRLHFALAEEIERIKDELCKRNTGEGRQVQWDKVFTSCFLTVDGEIEGKIGRAVVGSSDKVLEAVADETVGSTAVVALVCSSHIVVSNCGDSRAVLFRGKEAMPLSVDHKPDREDEYARIENAGGKVIQWQGARVFGRLAMSRSIGDRYLKPYVIPEPEVTFMPRSREDECLILASDGLWDVMNNQEVCEIARRRILMWHKKNGAPPLAERGKGIDPACQAAADYLSMLALQKGSKDNISIIVIDLKAQAKFKTRT

Variants of: B1
Experiment: β-gal-based Y2H assay
Conditions: with HAB1*, ligand: disulfoton

Row | screen value | Variant
1 | 100 µM | chain 1 MPSELTPEERSELKNSIAEFHTYQLDPGSCSSLHAQRIHAPPELVWSIVRRFDKPQTHRHFIKSCSVEQNFEMRVGCTRDIIVISGLPANTSTERLDILDDERRVTGASIIGGEHRLTNYKGVTTVHRFEKENRIWTVVLESYVVDVPEGNSEDDTRIVVDDVVKLNLQKLATVAEAMARNSGDGSGSQVT [chain 1 M147V]

Same assay, conditions: with HAB1*, ligand: azinphos-ethyl

Row | screen value | Variant
2 | 0.01 µM | chain 1 MPSELTPEERSELKNSIAEFHTYQLDPGSCSSLHAQRIHAPPELVWSIVRRFDKPQTHRHFIKSCSVEQNFEMRVGCTRDIIWISGLPANTSTERLDILDDERRVTGASYIGGEHSLTNYKGVTTVHRFEKENRIWTVVLESYVVDMPEGNSEDDTRIVVDDVYKLNLQKLATVAEAMARNSGDGSGSQVT [chain 1 V83W I110Y R116S V164Y]
3 | 0.25 µM | chain 1 MPSELTPEERSELKNSIAEFHTYQLDPGSCSSLHAQRIHAPPELVWSIVRRFDKPQTHRHFIKSCSVEQNFEMRVGCTRDIIWISGLPANTSTERLDILDDERRVTGASYIGGEHSLTNYKGVTTVHRFEKENRIWTVVLESYVVDMPEGNSEDDTRIVVDDVVKLNLQKLATVAEAMARNSGDGSGSQVT [chain 1 V83W I110Y R116S]
4 | 0.01 µM | chain 1 MPSELTPEERSELKNSIAEFHTYQLDPGSCSSLHAQRIHAPPELVWSIVRRFDKPQTHRHFIKSCSVEQNFEMRVGCTRDIIWISGLPANTSTERLDILDDERRVTGASIIGGEHSLTNYKGVTTVHRFEKENRIWTVVLESYVVDMPEGNSEDDTRIVVDDVVKLNLQKLATVAEAMARNSGDGSGSQVT [chain 1 V83W R116S]

Same assay, conditions: with HAB1*, ligand: pirimiphos

Row | screen value | Variant
5 | 25 µM | chain 1 MPSELTPEERSELKNSIAEFHTYQLDPGSCSSLHAQRIHAPPELVWSIVRRFDKPQTHRHFIKSCSVEQNFEMRVGCTRDIIVISGLPANTMTERLDILDDERRVTGASIIGGEHRLTNYKGVTTVHRFEKENRIWTVVLESYVVDMPEGNSEDDTRIVVDDVVKLNLQKLATVAEAMARNSGDGSGSQVT [chain 1 S92M]

Same assay, conditions: with HAB1*, ligand: diazinon

Row | screen value | Variant
6 | 100 µM | chain 1 MPSELTPEERSELKNSIAEFHTYQLDPGSCSSLHAQRIHAPPELVWSIVRRFDKPQTHRHFIKSCSVEQNFEMRVGCTRDIIVISGLPANTSTERLDILDDERRVTGVSIIGGEHRLTNYKGVTTVHRFEKENRIWTVVLESYVVDMPEGNSEDDTRIVVDDVVKLNLQKLATVAEAMARNSGDGSGSQVT [chain 1 A108V]

Same assay, conditions: with HAB1*, ligand: malathion

Row | screen value | Variant
7 | 100 µM | chain 1 MPSELTPEERSELKNSIAEFHTYQLDPGSCSSLHAQRIHAPPELVWSIVRRFDKPQTHRHFIKSCSVEQNFEMRVGCTRDIIAISGLPANTSTERLDILDDERRVTGASIIGGEHRLTNYKGVTTVHRFEKENRIWTVVLESYVVDMPEGNSEDDTRIVVDDVVKLNLQKLATVAEAMARNSGDGSGSQVT [chain 1 V83A]

Same assay, conditions: with HAB1*, ligand: azinphos

Row | screen value | Variant
8 | 10 µM | chain 1 MPSELTPEERSELKNSIAEFHTYQLDPGSCSSLHAQRIHAPPELVWSIVRRFDKPQTHRHFIKSCSVEQNFEMRVGCTRDIIWISGLPANTSTERLDILDDERRVTGASIIGGEHSLTNYKGVTTVHRFEKENRIWTVVLESYVVDMPEGNSEDDTRIVVDDVVKLNLQKLATVAEAMARNSGDGSGSQVT [chain 1 V83W R116S]

Same assay, conditions: with HAB1*, ligand: chlorofenvinphos

Row | screen value | Variant
9 | 12.5 µM | chain 1 MPSELTPEERSELKNSIAEFHTYQLDPGSCSSLHAQRIHAPPELVWSIVRRFDKPQTHRHFIKSCSVEQNFEMRVGCTRDIIVISGLPANTSTERLDILDDERRVTGASIIGGEHRLTNYKQVTTVHRFEKENRIWTVVLESYVVDMPEGNSEDDTRIVVDDVVKLNLQKLATVAEAMARNSGDGSGSQVT [chain 1 G122Q]
